Target: murine dimeric IgA (mouse) (UniProt P01592)
Assay: cell-based or functional assay

Sequence of UniProt P01592 (P01592 22-159): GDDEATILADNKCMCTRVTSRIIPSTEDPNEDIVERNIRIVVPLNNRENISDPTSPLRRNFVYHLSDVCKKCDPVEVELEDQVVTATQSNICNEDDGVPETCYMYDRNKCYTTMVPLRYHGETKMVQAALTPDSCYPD

- total IgA concentration in milk by ELISA, transgenic line 3644 (270-fold increased SC); control mean 292 mg/ml: 593
- total IgA level in milk by ELISA, transgenic line 3646 (60-fold elevated SC) against control mice: 1.5 times
Substance: murine polymeric immunoglobulin receptor (from UniProt O70570 19-771)
